From the supplement of paper PMC10724198
± gives the standard deviation of the averaged measurements.

Tests used:
[1] = tested on: Saccharomyces cerevisiae; test: protein stability index of tFT-peptide fusion (C-terminal peptide) (PSI (0-1 scale)); higher = more stable (slower turnover)
Method: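 MPS profiling in S. cerevisiae of the tFT-X12 degron library: putative degron peptides plus stable controls, 12 aa, fused to the C-terminus of a sfGFP-mCherry timer. Cells are FACS-sorted into 8 mCherry/sfGFP bins and deep-sequenced. PSI runs from 0 (unstable) to 1 (stable). Backgrounds are wild type, das1Δ and doa10Δ at 30 °C, and wild type, das1Δ, cdc34-1 and cdc53-1 at 37 °C; 2-3 technical replicates each.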

[2] = tested on: Saccharomyces cerevisiae; test: as above; settings: genetic background: wild type; temperature: 30 C
[3] = genetic background: cdc34-1, temperature: 37 C
[4] = genetic background: cdc53-1, temperature: 37 C
[5] = genetic background: das1 deletion, temperature: 30 C
[6] = genetic background: das1 deletion, temperature: 37 C
[7] = genetic background: doa10 deletion, temperature: 30 C
[8] = genetic background: wild type, temperature: 30 C
[9] = genetic background: wild type, temperature: 37 C
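Further: PSI is a weighted mean of sequencing reads over stability bins, variants kept only with over 10 reads, mCherry proximal and sfGFP distal, peptide attached via GGGS linker.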

| Sequence | protein stability index [1, 3] | protein stability index [1, 4] | protein stability index [1, 5] | protein stability index [1, 6] | protein stability index [1, 7] | protein stability index [1, 8] | protein stability index [1, 9] | protein stability index [2] |
| --- | --- | --- | --- | --- | --- | --- | --- | --- |
| YFFGWSVSLLIL | 0.133 ± 0.014 | 0.251 ± 0.039 | 0.192 ± 0.035 | 0.322 ± 0.0091 | 0.108 ± 0.015 | 0.124 ± 0.021 | 0.2397 ± 0.0019 | 0.184 ± 0.019 |
| WWGIVIVGGLGC | 0.526 ± 0.0069 | 0.566 ± 0.019 | 0.423 ± 0.019 | 0.5691 ± 0.00075 | 0.384 ± 0.02 | 0.404 ± 0.011 | 0.564 ± 0.024 | 0.489 ± 0.051 |
| YWIFCYFFWGGV | 0.392 ± 0.032 | 0.483 ± 0.0098 | 0.358 ± 0.032 | 0.518 ± 0.008 | 0.3153 ± 0.0014 | 0.35 ± 0.015 | 0.501 ± 0.02 | 0.455 ± 0.037 |
| VWEKGVCGRMVG | 0.676 ± 0.015 | 0.7689 ± 0.0024 | 0.652 ± 0.021 | 0.744 ± 0.037 | 0.639 ± 0.012 | 0.6609 ± 0.0066 | 0.7276 ± 0.0072 | 0.703 ± 0.0081 |
| LLVFSSPPPAKF | 0.91 ± 0.036 | 0.901 ± 0.018 | 0.799 ± 0.055 | 0.833 ± 0.025 | 0.808 ± 0.023 | 0.769 ± 0.026 | 0.869 ± 0.024 | 0.81 ± 0.023 |
| ISFSLALSVSFS | 0.5219 ± 0.0035 | 0.532 ± 0.014 | 0.502 ± 0.015 | 0.478 ± 0.029 | 0.567 ± 0.05 | 0.528 ± 0.011 | 0.469 ± 0.013 | 0.49 ± 0.0052 |
| GVQVIWGWARVF | 0.51 ± 0.14 | 0.595 ± 0.019 | 0.507 ± 0.042 | 0.654 ± 0.019 | 0.0987 ± 0.029 | 0.0712 ± 0.032 | 0.131 ± 0.036 | 0.0923 ± 0.032 |
| PLFPPTDSPSPN | 0.7098 ± 0.0063 | 0.729 ± 0.051 | 0.668 ± 0.025 | 0.724 ± 0.018 | 0.685 ± 0.025 | 0.648 ± 0.015 | 0.709 ± 0.029 | 0.727 ± 0.03 |
| LVNSPSISSLWL | 0.695 ± 0.019 | 0.736 ± 0.034 | 0.688 ± 0.015 | 0.746 ± 0.0087 | 0.6786 ± 0.0038 | 0.691 ± 0.018 | 0.719 ± 0.008 | 0.586 ± 0.22 |
| HCINYGRIQFCA | 0.596 ± 0.028 | 0.71 ± 0.05 | 0.596 ± 0.013 | 0.714 ± 0.024 | 0.245 ± 0.012 | 0.253 ± 0.034 | 0.532 ± 0.06 | 0.388 ± 0.051 |
| LLLSSILLILSS | 0.357 ± 0.033 | 0.409 ± 0.0057 | 0.29 ± 0.018 | 0.465 ± 0.023 | 0.2369 ± 0.00081 | 0.272 ± 0.024 | 0.459 ± 0.063 | 0.34 ± 0.019 |
| GGLRILLRLVWT | 0.471 ± 0.052 | 0.47 ± 0.014 | 0.377 ± 0.033 | 0.488 ± 0.008 | 0.381 ± 0.011 | 0.345 ± 0.045 | 0.471 ± 0.014 | 0.454 ± 0.025 |
| LQLRKQILLLMT | 0.348 ± 0.022 | 0.36 ± 0.011 | 0.299 ± 0.022 | 0.432 ± 0.005 | 0.169 ± 0.019 | 0.195 ± 0.013 | 0.233 ± 0.034 | 0.299 ± 0.025 |
| VEFSLYVVFFLV | 0.2152 ± 0.00048 | 0.344 ± 0.024 | 0.248 ± 0.029 | 0.437 ± 0.028 | 0.0993 ± 0.013 | 0.109 ± 0.018 | 0.154 ± 0.0063 | 0.211 ± 0.0088 |
| RVSVNDGRRDSV | 0.712 ± 0.046 | 0.723 ± 0.016 | 0.652 ± 0.039 | 0.73 ± 0.013 | 0.681 ± 0.011 | 0.664 ± 0.015 | 0.707 ± 0.022 | 0.557 ± 0.18 |
| SLGRYVSFLFVV | 0.433 ± 0.02 | 0.6623 ± 0.0014 | 0.565 ± 0.024 | 0.668 ± 0.024 | 0.106 ± 0.0061 | 0.0996 ± 0.016 | 0.153 ± 0.019 | 0.202 ± 0.004 |
| TCFVKLLPFLVL | 0.549 ± 0.052 | 0.562 ± 0.011 | 0.456 ± 0.02 | 0.608 ± 0.024 | 0.4425 ± 0.0032 | 0.442 ± 0.013 | 0.5482 ± 0.0021 | 0.546 ± 0.067 |
| VSFHFLLLVPCC | 0.0285 ± 0.0095 | 0.0251 ± 0.0019 | 0.0609 ± 0.027 | 0.0732 ± 0.023 | 0.044 ± 0.0035 | 0.0565 ± 0.02 | 0.0701 ± 0.0096 | 0.105 ± 0.082 |
| AVSFTLVLCSCF | 0.474 ± 0.025 | 0.489 ± 0.029 | 0.416 ± 0.039 | 0.473 ± 0.023 | 0.389 ± 0.0073 | 0.401 ± 0.019 | 0.444 ± 0.0074 | 0.449 ± 0.023 |
